Test results from the DeepSol protein solubility set.

Test: soluble on expression in E. coli; label from the status in PepcDB or PDB records
With “GPGSMTSEEAVECTDALELVRCPSSNARVVPNRFDEEYIRGRLQEAEKIFEKAKTDVSRGLSKCEDWLGACEAFNEAGGLFASCGHPAEAARAFFHASIITRAFKDEEETTTALSLAVENMQLVEPLLAVNLMQKISETLKKGGFFFQAARCKRDSALLLEDRLGEPERAIELYREAIELYGNRSFMSSFSRGCMERITTLTVELKKYTEASKLFVEETAYAPRGRPKTRQFFLSLLCMLAEGFGDNDRYFDSLYYARKRFHALQEEERDFQHGKENRLVRKIIEANDNGSLTAFDTAVYEYRSSSTYVPDAVFENLIERCRKNLYEHLEQYI” the “soluble on expression in E. coli” value was “soluble”.
With “MRGSHHHHHHGMASMTGGQQMGRDLYDDDDKDHPFMAQRTEESKGKLSFATQGGQGEGSYSKSNSAASKTLSACIVPSLEEFLLHHFSPPQGAGPIYYADFGCAVGANTIGLAKFVTETLKSRPEISERDFLCYFADLPTNDFNTLFNQFPPLASRDGGNGNVEERTWFAAGVPGNQFNRMFPRSSLHVAITTLTLHYLPEIPKSITDESSPTFNRGCISSHGASPAVAEVFADTSREGLRKFFQCRAEELASGGVLAFYFPSRPDRAHPERQMSEDSMQLALWKVETAWRELVAEGVMPEELLDTFNVPNCHPSKEEVEEVVDHETSCFHIQKLEYIHKHPFSPPNPELILKDAQSYAKWWTGILRGGLGGMLSAHMAPELTEALMERFSKHIEKDYLEKKPQFPMIMNICMGILIRK” the “soluble on expression in E. coli” value was “soluble”.
With “MSQNLFNVEDYRKLAQKRLPKMVYDYLEGGAEDEYGVKHNRDVFQQWRFKPKRLVDVSRRSLQAEVLGKRQSMPLLIGPTALNGALWPKGDLALARAATKAGIPFVLSTASNMSIEDLARQCDGDLWFQLYVIHREIAQGMVLKALHTGYTTLVLTTDVAVNGYRERDLHNRFKIPPFLTLKNFEGIDLGKMDKANLEMQAALMSRQMDASFNWEALRWLRDLWPHKLLVKGLLSAEDADRCIAEGADGVILSNHGGRQLDCAISPMEVLAQSVAKTGKPVLIDSGFRRGSDIVKALALGAEAVLLGRATLYGLAARGETGVDEVLTLLKADIDRTLAQIGCPDITSLSPDYLQNEGVTNTAPVDHLIGKGTHAHHHHHH” the “soluble on expression in E. coli” value was “soluble”.
In the case of “MGSDKIHHHHHHMFVMLAMANVTTSAPRAVAPAYDPRLVRAAVAMNENDLPTAEPLLRALLKDDPFDVRAIRLFAELAGRIGRYQDAENLLRRAIELAPQFTAARANLALVLYRTNRAPEALEELAKVTADDPENVGHANLQAAAYGRIGEFDEALALYEQVLKQAAAQPRVWMSYGHMLKTVGRQADGVAAYRRAIELLPTLGEAWWSLANLKTVRFDDADIAAMEAALRVPDLAPEDQWHLDFALGKAFEDRGEAERSFRHYAAGNALRKKRMPYQAEEITAQVDRAVAAFTPATVAGLSGKGCEAGDPIFVLGMPRAGSTLVEQILASHSMVEGTSELADIGYLARTVEGYPAGLSSLQGNDLRALGEQYLARTRIQRHTDRPLFVDKMPNNWIHVPFIRAILPNAKIVDARRHPLSCCFSNFKQHFARGQGFSYSLEDMGRYYRDYVRAMAHFDKVIPGAVHRVIYERMVEDTEAEVRALLAYCGLAFEDNCLAFHRTERAVRTASSEQVRQPIFRDGTDAWKAFEPWLGELKVALGAVQDFYPEAPPFD”, the “soluble on expression in E. coli” value is reported as “not soluble”.
With “MAKIYNAPKPKYSGWEWFKFIAIRTVFPPVLLWDLIKIGANKLLGEWVSGLVLPAQNENFDDLAISDDTVSNYNEDDLICEKHDVITHDGAHLDTFEVRHRSQESIDPKYQKYIINLVGNGMCYEHIIDDIKEDSKALKANVIGFNLRGVGQSTGKAKSSEDLVADGIAQVQRLLDQGVSPQNITLKGHSLGAGVASLVAQHFHQLGQPINLFNSRSFSTITNFLVGHMRLERDEIGRAIGHKDSTVGTILGWLAKPFIKFGVALAKWEINAGSAFKSVPEAYKDYIVVRSRKEIRGERIDDAVIPHYASIHKELASERHKKKAEIDEEIANLDDIIRKADPLAKPGLANARDALVQAREKIKSDRKMETDVQYANGHNSDWNALHNRSGKSAQTFFREFVQRTEADHAVKSIPEIN” the “soluble on expression in E. coli” value was “not soluble”.
With “MGSDKIHHHHHHMANLNDFTFFVHVVDHGGFAPAARALNLPKSTLSKRVAELEKDLGVRLINRTSRHFAVTESGKDFYRHAAAMMIEAEAAENVVRGRLAEPSGTVRITASVPTAQLSLAPLLPQLALAYPKLRVTLHATDRFVDVIQDGFDLAVRDHFAPLPDSGLVQRRIGFQAKLIVASPLYLQGNGTPERPEDLDHHDGLLTSLASEGWVMERADGSTVSVSPRPRFVADESRVLREAALAGLGITTLPGKLCQQEIESGTLIRILPEWTAGKVMTTILMPHRRGQLPSVRATVDFIAERLVDG” the “soluble on expression in E. coli” value was “not soluble”.
In the case of “MRGKLDLGEQPLVLIWEVTQACELACKHCRADAQPRRHPDELSTAEGKALLDQASEFGDGQLVVLSGGDPLARGDLPELVEYGTEQGLRMTLTPSGTNSITPERLAELDDAGLRRLALSIDGGDSDAHDTFRGESGSFEATMAAAEAARNLDIPLQINTTVCAETVEQLPAIRDLVADLDAVLWSVFFLVPVGRGRVLTPIDPERAERVLKWLHEVSDEASFGLKTTEAPHYRRVAMEQQDEGASGLKRRMGIRAGKGFAFVSHTGEVFPSGFLPKSAGSVREESVVDIYRDSPLFQQLRDDDALTGKCGACRYRTVCGGSRSRAYATTGDPLAADPLCDYRPDGFEGSVPDQHPAD”, the “soluble on expression in E. coli” value is reported as “not soluble”.
For “MRAAQALPQTAHVSHFGHGPRLVLALHCTIAHSGAWKGLTRILGEEAQFTAPDMLSHGRSPDWDGQGCFQDRILGIARTCLTEAPMDVIGHSFGATVALRLAVEHPERVRSLTLIEPVFFAVARQDAPELIDSHASDAQPYLDALAAGDHALAARLFNRMWSTADSPRWPDLPEATRAAMIRGIHVVPTMDAALFDDTAGLLAPGRLDRAAMPVLLLRGALTHPVMQAISMGLQRRLPDAVEMVIEGAGHMLPITHPDETAAHIRALWSRTG”, the “soluble on expression in E. coli” value was “not soluble”.
With “GMPALITYRTTVQEDWVDYNGHLRDAFYLLIFSYATDALMDRIGLDADSRGQSGNSLFTLEAHINYLHEVKLGTEVWVQTQILGFDRKRLHVYHSLHRAGFDEVLAASEQMLLHVDLAGPQSAPFGHTTVCRLNHLVEQQEGAQAPQYMGRTIKLPA” the “soluble on expression in E. coli” value was “soluble”.
For “MAHHHHHHMTDVDQWKCASFKQEEDHSEATDALLERINATAIPVLLRSTNSSLDDLVNELLALEKMARLGGDALSAKRLVVEILRIYRVHGDHEKMLDTLETLMRKRGQTKQSQGAMIAECGVLLTEGNLSREQRRIVLERVVHLTDSRIHVELEHVRFAIDLAKLMEDDGEKRAACDLLSGLHVETVTNMPRVEKLDALNRLIRLCLELEDYELARLVSRRINHRALSRPGALQAKLKYFELMREYFAQRRSYFHVARCWYETFLSETDETACVSALSSMAVHYLIAEHSSPKELEDHAECAAFSPATKFADRTAAIQGITTTLRKRLEENPQLQYLLEKFTSIELIRERVADDVEALCINHPQLAGFPERQALLRSRCSEHDLLVISRFYRRLRLVRLAELVGLTPQHTEEFLMMMVASRTLYAKIDRVDGLVVFEANKNANDVVTAWDEAVGRSVALLDKVSHLIVKERMLHNITLAQLQQSGATAS”, the “soluble on expression in E. coli” value was “not soluble”.
For “MNINRFVLAAPGSGSGKTTVAALLCLALRARGLSVQPFKLGPDYLDPTHLTRAAGRETRNLDSFLLAPERLQTLFARAAAQAEVCVIEGVMGLYDGRDPGSDEHSTAALARLLGARVVLVIDAGGMARTVAAVAAGLRDFGEGVNVAGVILNRVGSVRHAELCAEALTQVGLACLGFLLQDDALRLPSRHLGLLSAQQASWDEAAALAAARYLDLDALLNVTRAPDLSSSSSMSPPPSTRIAYAFDSAFHFYYPDALDELRSCGAELVPFSPLEDAGVPEDVGGLLLGGGYPEAHAAELAANERMRRSVRAFAASGRPVVGECGGLMYLSETLEDENGVTHEMCGVVPYRTRMARRLSLGYRDALSLADSPLLPAGTAIRGHEFHFSTLTHEPTHPAYRWRTHDGQEVAEGYARGNVLASYLHLHYGGFPAVAARLVERCQLEHHHHHH”, the “soluble on expression in E. coli” value was “not soluble”.
For “MAAAGTLERSFVELSGAERERPRHFREFTVCSIGTANAVAGAVKYSESAGGFYYVESGKLFSVTRNRFIHWKTSGDTLELMEESLDINLLNNAIRLKFQNCSVLPGGVYVSETQNRVIILMLTNQTVHRLLLPHPSRMYRSVSWLSAISFISQITLGVTNVVLERCLLELKEIWILVIPHQAYFDSYRLKLEHHHHHH”, the “soluble on expression in E. coli” value was “not soluble”.
In the case of “MGSDKIHHHHHHMATTNAASTVRELIREHYSALTQAERKFANALLDNYPAAGLASITIVASNVGVSSPTVARMVKKLGFKGYPEFHKALLSELEAKGVGPTKRRDNWSSEAPQEHLLNRFSQAVTNNLQQTFAHIDTERFDQATRQLADTEKRLYIVGGRITQALADYAFTHFQAVRPGVTHMTSSSGTWPHYVLDMEPGDTLLIFDVRRYETNLLRLTEIVKKRGAQIVLFTDQWGSPISTLADLTFHCRVEIPSGWDSNVATMMLLETMIASVQEQRWPDARDRYERLDELFDKTHFFRKFT”, the “soluble on expression in E. coli” value is reported as “not soluble”.
For “MKRALGVSVYPDHSDINQDKAYLKKASECGFTRIFMSMLEVTDGKEAVQKKFKELISYAKNLGFETILDVVPSIFDELEISYDDLTFFSELGADGIRLDTGFDGNKEAMLTFNPFGVAIELNMSNDVAYLDNILTYEANRPFLYGCHNFYPQAGTALPYDFFEKCSIRFKKEGIRTAAFISSQVGEIGPWDVNDGLPTLEMHRQLPVTVQAKHLFATNLIDDVVIGNAYASNEELEALGQLNRYQTELTIVFEEATSEIEKEIVTKNQHFRRGDITQQMIRSTEVRKKYKNEVNPPHDNQAMLQPGDVVVGNDAFGKYKNELQVVLEPHQDSRKNRVGRIIEEELVLLEFIKPWTKFRFIEK”, the “soluble on expression in E. coli” value was “not soluble”.
With “MSTSADYKINQQQIVCVASFLSKEGKTEALIAALASLIPDTRREAGCIRYELNVSRDEPRRVTFVEKFVDIAAFDEHCAKDAIQHYFHQVMPELVESFHVETYHQVIA” the “soluble on expression in E. coli” value was “soluble”.
For “MVVLYNECLKNHAVSLGGHALDGCGEFTPKSTTILTDPPSLRCDACGCHRNFHRRSPSDGFSQHRSPPSPLQLQPLAPVPNLLLSLSSGFFGPSDQEVKNKFTVERDVRKTAMIKKHKRTKFTAEQKVKMRGFAERAGWKINGWDEKWVREFCSEVGIERKVLKVWIHNNKYFNNGRSRDTTSSMSLNLKL”, the “soluble on expression in E. coli” value was “soluble”.
For “MKLLLLIFVPFVTCGLTCMDFMIDCPRIVYYCDETYVQNQCQFSCGICKQDPGVCGDTYFDCDMYDTKCNSPSFQRQCAGTCGLCPGACEDIWDGCSHFLAPCSDDIKSLCPIKCGLCNSTTTPMILTTITPVDPRCVDAGNQCANYSPPCSDDVKIFCPATCGSCSNGTTGVPLVLTTLTPELTTVTVEPITSTLKPTTTTITPTTTTKLPTTTTKKLPPTTPKPPCKDSSPNCAGWAKNGFCTNTFYPPEKRKEYCGKTCRMC”, the “soluble on expression in E. coli” value was “not soluble”.
With “MPPRFNIANVLLSPDGETFFRGFRSKIHAKGSLVCTGEGDENGVFVVVDGRLRVYLVGEEREISLFYLTSGDMFCMHSGCLVEATERTEVRFADIRTFEQKLQTCPSMAWGLIAILGRALTSCMRTIEDLMFHDIKQRIAGFFIDHANTTGRQTQGGVIVSVDFTVEEIANLIGSSRQTTSTALNSLIKEGYISRQGRGHYTIPNLVRLKAAADGDRDDDDD” the “soluble on expression in E. coli” value was “soluble”.
In the case of “MSLELPSFIFQAQENLVERPWGGEWIALLKGFRQSGIGESWEFSAHTSRPSTVLVKGQQLSMIELFSKHRDELLGRAAEKFSKFPILVRLIDAASPTQVHVHPSDKAAESLGEAEGGVESAWLVFNKGKAYAGFKEDVKIEELEEKLKEEDFDFKTLLNTFETTPYDTFVIRPGIPHAGEGLRVLEVSSNSTLAYFFNENDWEKVKKVLNTKKVEEFEVKGKKGMAETENFGLEVVDVTGTAEIKTGGVMNILYAAEGYFILRGKETADLHRGYSCLVPASTDSFTVESERGKIVRIYLKVEGGSHHHHHH”, the “soluble on expression in E. coli” value is reported as “soluble”.
